Measurements reported in US20060216303A1 (published 2006).

Columns and labels:
[1] = molecular target: T1, synthetic polypeptide 20-mer APPAHGVTSAPDTRPAPGST of the breast mucin tandem repeat; experiment: binding to synthetic 20-mer
T1 construct: also called synthetic peptide started in the middle of the repeat
T1 peptide: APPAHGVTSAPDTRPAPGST

[2] = molecular target: T2, synthetic polypeptide 20-mer … of the breast mucin tandem repeat; experiment: binding to synthetic 20-mer
T2 construct: also called synthetic peptide started at the beginning of the 20 amino acid repeat
T2 sequence (peptide, as listed by the source): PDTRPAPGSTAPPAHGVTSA

binding result [1]: binds | binding result [2]: binds
B1: murine BrE-3 monoclonal antibody (antibody, V domains shown)
VH: EVKLEESGGGLVQPGGSMKLSCAASGFTFSDAWMDWVRQSPEKGLEWVAEIRNKANNHATYYDESVKGRFTISRDDSKSRVYLQMISLRAEDTGLYYCTGEFANWGQGTLVTVSA
VL: DVVMTQTPLSLPVSLGDQASISCRSSQNLVHNNGNTYLYWFLQKSGQSPKLLIYRASIRFSGVPDRFSGSGSETDFTLKISRVEAEDLGVYFCFQGTHVPWTFGGGTKLEIK
notes: Whole murine antibody; The entries are printed with a 19-residue leader; also called anti-BrE-3 murine antibody; murine BrE-3 antibody
